Test results reported in PMC7504130.

Target: PARP-1 (UniProt P09874)
Test: EMSA
Settings: EMSA: 20 mM Tris-HCl pH 8, 30 mM KCl, 1.5 mM MgCl2, 1 mM DTT, 8% glycerol, 50 uM ZnAc, 2.5 ng/mL poly[dI-dC], 25 C, 50 nM DNA; pull-down: 20 mM Tris-HCl pH …

Chain of PARP-1 (P09874 2-1014): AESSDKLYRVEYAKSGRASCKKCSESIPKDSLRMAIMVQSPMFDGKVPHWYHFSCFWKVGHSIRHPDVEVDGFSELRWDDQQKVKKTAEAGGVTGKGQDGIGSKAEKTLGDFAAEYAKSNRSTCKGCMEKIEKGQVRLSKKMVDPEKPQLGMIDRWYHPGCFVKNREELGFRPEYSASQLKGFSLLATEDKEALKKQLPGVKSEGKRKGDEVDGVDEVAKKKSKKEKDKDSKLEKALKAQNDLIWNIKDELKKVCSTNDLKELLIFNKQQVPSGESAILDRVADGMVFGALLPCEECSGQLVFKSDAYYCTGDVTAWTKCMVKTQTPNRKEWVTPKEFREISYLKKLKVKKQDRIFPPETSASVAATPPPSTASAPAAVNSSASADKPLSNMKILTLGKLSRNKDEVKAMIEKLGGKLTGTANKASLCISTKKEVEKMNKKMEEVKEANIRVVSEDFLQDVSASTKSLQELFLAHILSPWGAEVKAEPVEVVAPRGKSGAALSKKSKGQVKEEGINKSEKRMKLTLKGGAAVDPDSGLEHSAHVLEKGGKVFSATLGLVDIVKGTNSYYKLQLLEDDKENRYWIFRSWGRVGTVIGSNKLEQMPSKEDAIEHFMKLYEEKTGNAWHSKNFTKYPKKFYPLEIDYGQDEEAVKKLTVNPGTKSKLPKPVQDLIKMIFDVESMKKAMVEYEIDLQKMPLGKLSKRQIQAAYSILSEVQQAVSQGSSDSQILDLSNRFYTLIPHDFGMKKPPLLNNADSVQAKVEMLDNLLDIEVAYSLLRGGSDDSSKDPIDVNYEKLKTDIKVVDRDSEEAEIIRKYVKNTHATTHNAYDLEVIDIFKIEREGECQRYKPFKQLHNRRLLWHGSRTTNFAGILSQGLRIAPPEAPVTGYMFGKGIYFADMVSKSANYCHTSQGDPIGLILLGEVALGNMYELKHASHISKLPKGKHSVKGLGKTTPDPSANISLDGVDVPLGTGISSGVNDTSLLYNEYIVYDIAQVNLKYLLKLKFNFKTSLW

| Sequence | Kd |
| --- | --- |
| AGGGCGGTGTGGGAAGAGGGAAGAGGGGGAGG [Cy5.5-32R (G4 32R)] | 200 nM |
| CGGGCCGGCGGGGGAGGAGCGGGGGCCGGGC [Cy5.5-mid2 (G4 mid2)] | 370 nM |
| CGGGGAGAAGGAGGGGGCCGGGCCGGGC [Cy5.5-mid1 (G4 mid1)] | 360 nM |
